Laboratory results reported in US20160017025A1 (RAMOT AT TEL AVIV UNIVERSITY, published 2016).
Ends that are not written are not given here.

T1: APP MAP peptide WT (wild type = ISEVKMDA x8), APP aa 666-673 (also: multiple antigenic peptide, 8 copies, core not described)
T1 construct: Eight copies of the octapeptide as a multiple antigenic peptide; the branching core is not described; also called WT peptide
T1 peptide: ISEVKMDA

T2: APP MAP peptide IP (immunizing peptide = ISEVKLDA x8), half-Swedish mutation (also: multiple antigenic peptide, 8 copies, core not described)
T2 construct: Eight copies as a MAP; the core is not described; also called MAP1-IP
T2 peptide: ISEVKLDA

T3: APP MAP peptide SW (double Swedish mutation = ISEVNLDA x8) (also: multiple antigenic peptide, 8 copies, core not described)
T3 construct: Eight copies as a MAP; the core is not described
T3 peptide: ISEVNLDA

B1: F5.100 (BBS3) mAb (antibody, mouse IgG1, kappa, V domains shown)
VH: EVQLQQSGPELVKPGASVKISCKASGYTFTDYNMHWVKQSHGKRLEWIGYIYPHNGGTGYNQRFKSKATLTVDKSSSTAYMELRSLTSEDSAVYYCARPGTEAYWGQGTLVTVSA
VL: DIVMTQSQKFMSTSVGDRVSVTCKASQNVGTNVAWYQQKPGQSPKPLIYSASYRYSGVPDRFTGSGSGTDFTLTISNVQSEDLAEYFCQQFNSYPLTFGAGTKLELKR
notes: Mouse hybridoma IgG1; The mature N-termini were found as EVQLQ (H chain; D = residue 21); also called F5.100 mAb; murine BBS3 mAb
B2: F5.87 mAb (antibody, mouse IgG1, kappa, V domains shown)
VH: EVKLEESGGGLVQPGGSMKLSCAASGFTFSNAWMDWVRQSPEKGLEWVAEIRSKANNHATYYGESVKGRFTISRDDSKSSVYLQMNSLRAEDTGIYYCTATVRGGYWGQGTTLTVSS
VL: DIKMTQSPSSMYASLGERVTITCKASQDINSYLSWFQQKPGKSPKTLIYRANRLVDGVPSRFSGSGSGQDYSLTISSLEYEDMGIYYCLQYDEYPYTFGGGTKLEIKR
notes: Mouse hybridoma IgG1

Tests used:
[1] = target: T1, APP MAP peptide WT (wild type = …); assay: BIAcore SPR; reference BBS1
Protocol: (§1) The affinity of new MAbs was assessed by BIAcore. Protein G was immobilized on the CM5 chip as capturing molecule for the different mAbs. Each mAb (ligand) was bound separately to Protein G, and different APP MAP peptides were added separately to the liquid phase (analytes) at different concentrations to test the affinity of the mAb to each peptide. Each mAb was tested for its affinity to the different APP MAP peptides for aa 666-673 WT (wild type=[…], SEQ ID NO:18), IP (immunizing peptide=[…], SEQ ID NO:15), and SW ([…], SEQ ID NO:17). The chip was regenerated by HCl after each cycle of mAb-peptide.

[2] = target: T2, APP MAP peptide IP (immunizing peptide …); assay: BIAcore SPR; mAb captured on Protein G on CM5 chip, MAP peptide as analyte
Protocol: as §1

[3] = target: T1, APP MAP peptide WT (wild type = …); assay: as above
Protocol: as §1

[4] = target: T3, APP MAP peptide SW (double Swedish …); assay: as above
Protocol: as §1

Binder | fold improvement in affinity over BBS1 [1] [fold] | Kd [2] [nM] | Kd [3] [nM] | Kd [4] [nM]
B1 | 1000 | 3.8 | 1.5 | 8.8
B2 | 1000 | 1.2 | 3.3 | 1.1
